One block for each binder: values may come before it.
Key:
[1] = target: T1, human CLDN18.2 expressed on cell surfaces (human, UniProt P56856-2 1-261); experiment: flow cytometry on CHOK1 cells expressing human CLDN18.2, goat anti-human IgG secondary, normalised MFI
T1 construct: whole, on cells; also called CHOK1 cells stably expressing human CLDN18.2
Experimental: The chimeric anti-human CLDN18.2 antibodies were diluted 2-fold in gradient from an initial concentration of 100 nM and solutions of each antibody of 16 concentrations were obtained. 10 μl of the solutions of each antibody of each concentration was added to a 384-well plate. CHOK1 cells expressing CLDN18.2 on the cell surface were collected by centrifugation for 5 min at 100 g at room temperature, and the cells were washed with PBS containing 0.5% BSA once and then were centrifuged for 5 min at 100 g at room temperature. The cells were resuspended at a density of about 2×10⁶ cells/ml, and 10 μl was added to each well of the 384-well plate to which the antibody had been added. After incubation for 1 hour at 4° C., fluorescently labeled secondary goat anti-human IgG antibody was added. After continued incubation for 1 hour at 4° C., the mean fluorescence readings of the cell populations were analyzed by a flow cytometer.

[2] = target: T1, human CLDN18.2 expressed on cell …; experiment: FACS of hybridoma supernatants on CHOK1 cells
Experimental: Balb/c mice were immunized with CHOK1 cells stably expressing human CLDN18.2 protein on cell surfaces. One month later, sera from the mice were analyzed by flow cytometry (FACS), and spleens were taken from mice having high antibody titers in sera. The spleen cells isolated by standard methods were fused with myeloma cells P3X63Ag8.653 using PEG or electrofusion methods. The fused hybridoma cells were seeded in 384 well plates, and after 10-14 days of culture, supernatants obtained were analyzed by FACS for antibody secretion by the hybridoma cells. Several clones were obtained that were able to bind to CHOK1 cells stably expressing human CLDN18.2 protein on cell surfaces and were not able to bind to CHOK1 cells stably expressing human CLDN18.1 protein on cell surfaces. Single cells of the obtained clones were obtained by Limiting Dilution, and each of the monoclonal hybridoma cell clones obtained after being diluted three times secreted only one antibody.

[3] = target: T2, antigen human CLDN18.2, His-tagged (human, UniProt P56856-2 1-261, limits assumed); experiment: BLI (Fortebio), His-tagged antigen on NTA probe, 100 nM antibody, 1:1 fit
T2 construct: Recombinant antigen used in the Fortebio assay (His-tagged, captured on NTA probe); also called His-tagged antigen; not shown: His tag
Experimental: The binding kinetic parameters of the chimeric antibodies and the humanized antibodies thereof to the antigen human CLDN18.2 were analyzed by a Fortebio (BLITZ pro1.1.0.28) instrument. Before performing the assay, an NTA bioprobe was soaked in PBS for 10 min, and the probe was then placed in PBS containing 100 nM antigen for 300 s to capture the His-tagged antigen. The probe was further subjected to a binding reaction with 100 nM antibody for a binding time of 400 s, and the probe was then transferred to PBS and subjected to a dissociation reaction for 600 s. When the assay was finished, data from which the response value of a blank control had been deducted were fitted to a 1:1 Langmuir binding model using software, and then the kinetic constants for antigen-antibody binding were calculated.

[4] = target: T1, human CLDN18.2 expressed on cell …; experiment: cell-based or functional assay
[5] = target: T2, antigen human CLDN18.2, His-tagged; experiment: SPR (BIAcore), antibody captured by anti-human Fc, antigen as analyte
Experimental: Referring to the instructions provided in the Human Antibody Capture Kit (cat No. BR-1008-39, Lot 10261753) from GE Healthcare, the analytical channel and the control sample channel on a CM5 sensor chip were first saturated and coupled with the maximum amount of anti-human Fc antibody, then buffers containing anti-human CLDN18.2 chimeric antibodies, humanized antibodies or a control antibody IMAB362 at 7.5 μg/ml were allowed to flow through the analytical channel and uniformly distribute. Finally, antigen samples diluted in gradient (the initial concentration was 20 nM and diluted by 1:3 to get 8 concentrations, and the concentration 0.741 nM was set to be repeated) were allowed to flow through both the analytical channel and the sample channel, and the photoreactions upon the binding of antibody to antigen were measured. Subsequently, the association constant Kon and dissociation constant Koff and affinity constant KD of each antibody were finally obtained by instrument software fitting analysis.

[6] = target: T1, human CLDN18.2 expressed on cell …; experiment: cell-based or functional assay; remark: listed apart in the source

B1: 46J05-xiIgG (antibody, V domains shown)
VH: DVQLVESGGGLVQPGGSRKLSCAASGFTFSRFGMHWVRQAPKKGLEWVAYISSGSNTIYYADTVKGRFTISRDNPKNTLFLQTTSLRSEDTAIYYCGRLGFYGNSFDHWGQGTLVTVSA
VL: NILMTQSPSSLTVTAGEKVTMNCKSSQSLLNGGNQRNYLTWYQQKAGQPPKLLIYWASTRESGVPDRFTGGGSGTDFTLTISSVQAEDLALYYCQNSYYYPLTFGAGTKLELKR
notes: murine variable regions on human IgG1 / kappa constant regions; also called 46J05 chimeric antibody
binding result [1]: binds

B2: murine antibody 46J05 (antibody, V domains shown)
VH: DVQLVESGGGLVQPGGSRKLSCAASGFTFSRFGMHWVRQAPKKGLEWVAYISSGSNTIYYADTVKGRFTISRDNPKNTLFLQTTSLRSEDTAIYYCGRLGFYGNSFDHWGQGTLVTVSA
VL: NILMTQSPSSLTVTAGEKVTMNCKSSQSLLNGGNQRNYLTWYQQKAGQPPKLLIYWASTRESGVPDRFTGGGSGTDFTLTISSVQAEDLALYYCQNSYYYPLTFGAGTKLELK
notes: Mouse hybridoma antibody (supernatant)
binding result [2]: binds

B3: 48G12-xiIgG (antibody, V domains shown)
VH: EVQLRQSGPELVKPGASVKMSCKASGYTFTTYIINWVKQKPGQGLEWIGYINPYNDDTRYNERVKGKATLTSDKSSSTAYMELSSLTSEDSAVYYCARFYFGNSFTYWGQGTLVTVSA
VL: DIVMTQSPSSLPVTVGERVTMTCKSSQGLFNSGNQRNYLTWYQQKPGQPPKLLIYWASTRESGVPDRFTGSGSGTDFTLTISSVQAEDLAIYYCQNNYIYPLTFGAGTKLELKR
notes: murine variable regions on human IgG1 / kappa constant regions; also called 48G12 chimeric antibody
binding result [1]: binds

B6: 11M23-hz00 (antibody, human IgG1, V domains shown)
VH: QVQLVESGGGVVQPGRSLRLSCAASGFSLTNYGVHWVRQAPGKGLEWVAVIWSDGRINYNSALKSRFTISRDNSKNTLYLQMNSLRAEDTAVYYCARHPAFGPHAMDYWGQGTLVTVSS
VL: DIVMTQSPLSLPVTPGEPASISCRSSKSLLNSNGNTYLYWYLQKPGQSPQLLIYRMSNPASGVPDRFSGSGSGTDFTLKISRVEAEDVGVYYCMQYLEYPPTFGAGTKLEIK
notes: Humanized (direct CDR graft)
Kd [3]: 1.49 nM
Response [3]: 0.164
koff [3]: 0.000324 s⁻¹
kon [3]: 218000 M⁻¹ s⁻¹

B7: 11M23-hz11 (antibody, V domains shown)
VH: QVQLVESGGGVVQPGRSLRLSCAASGFSLTNYGVHWVRQAPGKGLEWVAVIWSDGRINYNSALKSRFTISKDNSKNTLYLQMNSLRAEDTAVYYCARHPAFGPHAMDYWGQGTLVTVSS
VL: DIVMTQSPLSLPVTPGEPASISCRSSKSLLNSNGNTYLYWFLQKPGQSPQLLIYRMSNPASGVPDRFSGSGSGTDFTLKISRVEAEDVGVYYCMQYLEYPPTFGAGTKLEIK
Kd [3]: 1.29 nM
Response [3]: 0.174
koff [3]: 0.00046 s⁻¹
kon [3]: 356000 M⁻¹ s⁻¹

B8: 11M23-hz22 (antibody, V domains shown)
VH: QVQLVESGGGVVQPGRSLRLSCAASGFSLTNYGVHWVRQAPGKGLEWVAVIWSEGRINYQSALKSRFTISKDNSKNTLYLQMNSLRAEDTAVYYCARHPAFGPHAMDYWGQGTLVTVSS
VL: DIVMTQSPLSLPVTPGEPASISCRSSKSLLSSSGNTYLYWFLQKPGQSPQLLIYRMSNPASGVPDRFSGSGSGTDFTLKISRVEAEDVGVYYCMQYLEYPPTFGAGTKLEIK
Kd [3]: 2.92 nM
Response [3]: 0.136
koff [3]: 0.00195 s⁻¹
kon [3]: 670000 M⁻¹ s⁻¹

B10: 11M23-xiIgG (antibody, V domains shown)
VH: QVQLKESGPDLVAPSQSLSITCTVSGFSLTNYGVHWVRQPPGKGLEWLVVIWSDGRINYNSALKSRLSITKDNSKRQVFLKMNSLQIDDTAIYYCVRHPAFGPHAMDYWGQGISVTVSS
VL: DIVMTQDAPSIPVTPGESVSISCRSSKSLLNSNGNTYLYWFLQRPGQSPHLLLYRMSNPASGAPDRFSGSGSGTEFTLRISRVEAEDVGVYYCMQYLEYPPTFGAGTRLELKR
notes: Murine variable regions on human IgG1 / kappa constant regions; also called 11M23 chimeric antibody
Kd [3]: 0.293 nM
Response [3]: 0.184
koff [3]: 0.000107 s⁻¹
kon [3]: 366000 M⁻¹ s⁻¹

B12: IMAB362 (antibody, human IgG1, kappa, V domains shown)
VH: QVQLQQPGAELVRPGASVKLSCKASGYTFTSYWINWVKQRPGQGLEWIGNIYPSDSYTNYNQKFKDKATLTVDKSSSTAYMQLSSPTSEDSAVYYCTRSWRGNSFDYWGQGTTLTVSS
VL: DIVMTQSPSSLTVTAGEKVTMSCKSSQSLLNSGNQKNYLTWYQQKPGQPPKLLIYWASTRESGVPDRFTGSGSGTDFTLTISSVQAEDLAVYYCQNDYSYPFTFGSGTKLEIKR
notes: Chimeric anti-CLDN18.2 antibody of Ganymed, used as control; also called control antibody IMAB362
CDC EC50, BxPC3 cells stably expressing human CLDN18.2 (CCK-8) [4]: 52.2 nM
CDC EC50, CHOK1 cells stably expressing human CLDN18.2 (CCK-8) [4]: 30.4 nM
CDC EC50, NCI-N87 cells stably expressing human CLDN18.2 (CCK-8) [4]: 474 nM
Kd [5]: 136 nM
koff [5]: 0.201 s⁻¹
kon [5]: 1.48e+06 M⁻¹ s⁻¹
ADCC reporter EC50 (Jurkat NFAT-luciferase effector cells), BxPC3 target cells [6]: 0.106 nM
ADCC reporter EC50 (Jurkat NFAT-luciferase effector cells), CHOK1 target cells [6]: 0.593 nM
ADCC reporter EC50 (Jurkat NFAT-luciferase effector cells), NCI-N87 target cells [6]: 0.0909 nM

B13: 43B5-xiIgG (antibody, V domains shown)
VH: DVQLQESGPDLVKPSQSLSLTCTVSGYSISGAYNWHWIRQFPGNKLEWLAYMQYSGSSNYNPSFKSRISISRDTSKNQFFLQLKSVTTEDTATYYCARMYNGNSFLYWGQGTLVTVSA
VL: DIVMTQSPSSLTVTAGEKVTMNCKSSQSLFNSGNQKNYLTWYQQKPGQPPRLLIYWASTRESGVPDRFTGSGSGTDFTLTISSVQAEDLSLYYCQNSYSYPLTFGAGTKLELKR
notes: murine variable regions on human IgG1 / kappa constant regions; also called 43B5 chimeric antibody
EC50 (read off the curve) [1]: ~1 nM

Next, values leading:

binding result [1]: binds
B4: 50C14-xiIgG (antibody, V domains shown)
VH: EVQLRQSGPELVKPGASVKMSCKASGYTFTTYIINWVKQKPGQGLEWIGYINPYNDGTRYNERVKGKATLTSDKSSSTAYMELSSLTSEDSAVYYCARFHFGNSFTYWGQGTLVTVSA
VL: DIVMTQSPSSLPVTTGEKVTMTCKSSQGLFNNGNQRNYLTWYQQKPGQPPKLLIYWASTRESGVPDRFIGSGSGTDFTLTISSVQAEDLAIYYCQNNYIFPLTFGAGTKLELKR
notes: murine variable regions on human IgG1 / kappa constant regions; also called 50C14 chimeric antibody

binding result [2]: binds
B5: murine antibody 20L17 (antibody, V domains shown)
VH: DVQLVESGGGLVQPGGSRKLSCAASGFTFSSFGMHWVRQAPEKGLEWVAYISSGSSTIYYPDTVKGRFTVSRDNPKNTLFLQMTSLRSEDTAMYYCVRLGPRGNVMDHWGQGTSVTVSS
VL: DIVMTQSPSSLTVTAGEKVTMSCKSSQSLLNSGNQRNYLTWYQQKPGQPPKLLIYWASTRESGVPDRFTGSGSGTDFTLTISSVQAEDLAVYYCQNVYFYPLTFGTGTKLELR
notes: as for B2

binding result [1]: binds
B9: 43L6-xiIgG (antibody, V domains shown)
VH: QVQLKESGPDLVAPSQSLSLTCSVSGFSLTSYGIHWVRQPPGKGLEWLVVIWSDGRTTYNSGLKSRLSISKDNSKSQVLLKMNSLRTDDTAIYYCVRHPAFGPHAMDYWGQGTSVTVSS
VL: DIVMTQAAPSVPVTPGESVSISCRSSKSLLNSNGNTYLYWFLQRPGQSPQLLIYRMSNLASGVPDRFSGSGSGTDFTLRISRVEAGDVGVYYCMQYLEYPVTFGAGTKLELKR
notes: murine variable regions on human IgG1 / kappa constant regions; also called 43L6 chimeric antibody

binding result [2]: binds
B11: murine antibody 43L6 (antibody, V domains shown)
VH: QVQLKESGPDLVAPSQSLSLTCSVSGFSLTSYGIHWVRQPPGKGLEWLVVIWSDGRTTYNSGLKSRLSISKDNSKSQVLLKMNSLRTDDTAIYYCVRHPAFGPHAMDYWGQGTSVTVSS
VL: DIVMTQAAPSVPVTPGESVSISCRSSKSLLNSNGNTYLYWFLQRPGQSPQLLIYRMSNLASGVPDRFSGSGSGTDFTLRISRVEAGDVGVYYCMQYLEYPVTFGAGTKLELK
notes: as for B2

binding result [1]: binds
B14: 20L17-xiIgG (antibody, V domains shown)
VH: DVQLVESGGGLVQPGGSRKLSCAASGFTFSSFGMHWVRQAPEKGLEWVAYISSGSSTIYYPDTVKGRFTVSRDNPKNTLFLQMTSLRSEDTAMYYCVRLGPRGNVMDHWGQGTSVTVSS
VL: DIVMTQSPSSLTVTAGEKVTMSCKSSQSLLNSGNQRNYLTWYQQKPGQPPKLLIYWASTRESGVPDRFTGSGSGTDFTLTISSVQAEDLAVYYCQNVYFYPLTFGTGTKLELRR
notes: murine variable regions on human IgG1 / kappa constant regions; also called 20L17 chimeric antibody
